Values quoted from earlier work in article PMC7031699.
Read-outs that look alike come from different tables or passages of the source.

Legend:
Gq (Homo sapiens) [1] = biological target: Gq (Homo sapiens) (UniProt P50148)
Gq (Homo sapiens) [2] = biological target: Gq (Homo sapiens) (UniProt P50148); remark: listed apart in the source

Chain of UniProt P50148 (P50148 whole entry): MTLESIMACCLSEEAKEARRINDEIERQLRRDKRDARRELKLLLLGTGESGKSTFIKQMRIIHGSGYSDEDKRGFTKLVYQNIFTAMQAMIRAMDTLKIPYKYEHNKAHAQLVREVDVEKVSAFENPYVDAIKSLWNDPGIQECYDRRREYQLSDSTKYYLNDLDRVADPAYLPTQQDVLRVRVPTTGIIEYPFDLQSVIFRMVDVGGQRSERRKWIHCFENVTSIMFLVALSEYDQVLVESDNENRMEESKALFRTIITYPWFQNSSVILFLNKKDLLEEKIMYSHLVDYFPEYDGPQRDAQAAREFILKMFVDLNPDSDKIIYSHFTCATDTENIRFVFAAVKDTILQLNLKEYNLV

## NTS1 (from UniProt P20789)
Gq (Homo sapiens) [1]
  Kd: 550 nM
Gq (Homo sapiens) [2]
  Kd: > 5000 nM
